Article PMC8673750 (Cell Reports, 2021)

T1: Peptide #289 11-mer (SARS-CoV-2, Wuhan-Hu-1)
T1 chain: DKYFKNHTSPD

T2: Peptide #288 15-mer (SARS-CoV-2, Wuhan-Hu-1)
T2 chain: KEELDKYFKNHTSPD


What was measured:
Peptide #289 11-mer = molecular target: T1, Peptide #289 11-mer; assay: SPR
Peptide #288 15-mer = molecular target: T2, Peptide #288 15-mer; assay: ELISA
[1] = molecular target: SARS-CoV-2 S glycoprotein, original Wuhan-Hu-1 strain (WT), full-length, on 293T cells (SARS-CoV-2, UniProt P0DTC2); assay: flow cytometry on cells

Binder	Kd (Peptide #289 11-mer) [nM]	binding result (Peptide #288 15-mer)	binding result [1]
CV3-25 IgG (antibody, V domains shown) VH: EVQLVESGAEVKKPGESLKISCKGSGYTFTRYWIGWVRQMPGKGLEWMGIIYPGDSDTRYSPSFQGHVTISADKSISTAYLQWNSLKASDTAMYYCARLPQYCSNGVCQRWFDPWGQGTLVTVSS VL: EIVLTQSPSSVSASVGDRVTITCRASQGISSWLAWYQQKPGKAPKLLIYAASSLQSGVPSRFSGSGSGTDFTLTISSLQPEDFATYYCQQGNSFPYTFGQGTNLEIK	~1000	binds	
CV3-1 IgG (antibody, V domains shown) VH: EVQLVESGPEVKKPGTSVKVPCKASGFTFTSSAVQWVRQARGQRLEWIGWIVVGSGNTNYAQKFQERVTITRDMSTSTAYMELSSLRSEDTAVYYCAAPSCSGGRCYDGFDIWGQGTMVTVSS VL: not shown			binds
